These results are taken from article PMC4442024 (Nature, 2015).

To fix the notation:
B2: purified recombinant Flag-tagged SNAP29 (natural protein, human, UniProt O95721 1-258, looked up)
chain: MSAYPKSYNPFDDDGEDEGARPAPWRDARDLPDGPDAPADRQQYLRQEVLRRAEATAASTSRSLALMYESEKVGVASSEELARQRGVLERTEKMVDKMDQDLKISQKHINSIKSVFGGLVNYFKSKPVETPPEQNGTLTSQPNNRLKEAISTSKEQEAKYQASHPNLRKLDDTDPVPRGAGSAMSTDAYPKNPHLRAYHQKIDSNLDELSMGLGRLKDIALGMQTEIEEQDDILDRLTTKVDKLDVNIKSTERKVRQL

The target of test [1] is purified recombinant ATG14 (UniProt Q6ZNE5). In words: SEC-MALS. On the technique in general: SEC sorts molecules by how far they enter the pores of the column.
The target in test [2] is B2. In words: SEC.
For test [3], the target named is T1, purified recombinant Flag–STX17 (human, UniProt P56962 1-302).
T1 sequence (looked up): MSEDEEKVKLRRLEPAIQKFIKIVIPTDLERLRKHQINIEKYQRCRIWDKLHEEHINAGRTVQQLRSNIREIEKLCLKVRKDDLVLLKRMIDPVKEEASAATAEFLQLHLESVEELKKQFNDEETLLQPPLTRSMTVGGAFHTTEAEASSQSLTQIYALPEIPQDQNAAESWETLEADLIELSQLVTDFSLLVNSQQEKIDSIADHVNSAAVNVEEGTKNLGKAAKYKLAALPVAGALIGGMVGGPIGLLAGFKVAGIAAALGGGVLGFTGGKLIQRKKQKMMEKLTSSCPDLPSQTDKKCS
Nature of the test: SEC.

Values joined by “and” are separate entries in the source; they are usually repeats but may differ in a detail not shown here. Equal values may be shown once.

In the case of “purified recombinant ATG14 (from UniProt Q6ZNE5 1-492) (natural protein; other documents disagree on this pair)”, in test [1], the stoichiometry N was 2 and 4.

B1: purified recombinant Flag-tagged VAMP8 (natural protein, human, UniProt Q9BV40 1-100, looked up)
chain: MEEASEGGGNDRVRNLQSEVEGVKNIMTQNVERILARGENLEHLRNKTEDLEATSEHFKTTSQKVARKFWWKNVKMIVLICVIVFIIILFIVLFATGAFS
For the molecule B1, the binding result in test [2] is listed as “binds”.

For the molecule B2, the binding result in test [3] was “binds”.

The term stoichiometry N denotes the number of molecules, sites or subunits per partner or assembly.
